Data reported in paper PMC11440976, “Optimization and Evaluation of Al^18F Labeling Using a NOTA—or RESCA1-Conjugated AE105 Peptide Antagonist of uPAR” (Frontiers in Nuclear Medicine, 2021).
Blank lines part the entries; values can stand above or below the molecule they belong to. Where a SMILES comes first, the peptide text is derived from it. Where no end group is shown, it is not given here. [ ]: non-standard residue; d: D form. Cha = N[C@@H](CC1CCCCC1)C(=O)O

Key:
[1] = target: T1, uPAR^1−283 (Homo sapiens, UniProt Q03405); assay: SPR binding kinetics of peptides to immobilized uPAR (Biacore T200, single cycle); details: NB = no binding; for kon / koff: uPAR immobilized on CM5 chip, peptide in solution, global fit, ± standard error of fit; for kon: five serial 2-fold dilutions, 10 mM HEPES, 150 mM NaCl, 3 mM EDTA, 0.05% P-20, pH 7.4, 20°C, read-out: kon (association rate constant); for koff: read-out: koff (dissociation rate constant)
T1 construct: 10 μg/mL uPAR^1−283 in 10 mM sodium acetate pH 5.0 was covalently immobilized on a CM5 sensor chip; made in house
T1 sequence (Q03405 23-305): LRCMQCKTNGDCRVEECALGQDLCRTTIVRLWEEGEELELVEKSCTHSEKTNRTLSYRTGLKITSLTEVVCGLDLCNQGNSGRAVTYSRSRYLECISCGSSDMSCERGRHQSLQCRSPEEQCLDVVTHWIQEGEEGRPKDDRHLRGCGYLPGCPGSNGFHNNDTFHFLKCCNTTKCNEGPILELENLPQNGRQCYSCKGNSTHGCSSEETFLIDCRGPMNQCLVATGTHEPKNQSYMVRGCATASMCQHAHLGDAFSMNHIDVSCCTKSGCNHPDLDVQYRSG
Experimental: Binding kinetics of the peptides-uPAR interactions were determined with surface plasmon resonance (SPR) on a Biacore T200™ system (Cytiva), as outlined ([10]). In brief; 10 μg/mL uPAR^1−283 in 10 mM sodium acetate pH 5.0 was covalently immobilized on a CM5 sensor chip via amine coupling yielding a surface density of 905-1,333 RU (~26–39 fmol/mm^2) ([11]). Subsequently, we measured the binding kinetics of the various peptides to immobilized uPAR with single cycle protocols in which the peptides were injected as five serial 2-fold dilutions for 200 s with a short dissociation phase in between (100 s). The last analyte injection was followed by a 1,000 s long dissociation phase. In the end of each cycle, two consecutive injections of 0.1 M acetic acid in 0.5 M NaCl regenerated the sensor chip. All experiments were run with a flowrate of 50 μl/min in 10 mM HEPES, 150 mM NaCl, 3 mM EDTA, and 0.05% (v/v) surfactant P-20 at pH 7.4 at 20°C. The kinetic rate constants (kon and koff) as well as the KD (koff/kon) were determined by non-linear regression fitting of the curves to a simple bimolecular interaction model. We applied the BiacoreT200 Evaluation^TM 3.0 software for the global fitting. Additional binding kinetic curves is provided in the Supplementary Material.

[2] = target: uPAR·uPA interaction (Homo sapiens, UniProt Q03405); assay: SPR competition of the uPAR·uPA interaction (uPAR in solution, immobilized pro-uPA^S356A); type: binding; details: 2 nM uPAR incubated with 3-fold dilution series of peptide (0.076 nM to 1.5 μM), pH 7.4, 20°C, four-parameter dose-response fit, n = 3, ± standard error
Chain of uPAR·uPA interaction (Q03405 23-305 limits assumed): as the sequence (Q03405 23-305) above
Experimental: The IC50-values of RESCA-AE105, NOTA-AE105, AE105 (Asp-Cha-Phe-(D)Ser-(D)Arg-Tyr-Leu-Trp-Ser) and AE105-mut (Asp-Cha-Glu-(D)Ser-(D)Arg-Tyr-Leu-Glu-Ser) on the uPAR·uPA interaction were determined with SPR on a Biacore 3000™ instrument or a Biacore T200™ system (Cytiva). The set-up is overall as described previously ([12]). In brief, we obtained a high surface density of pro-uPA^S356A by immobilizing >5,000 RU (~ 0.1 pmol pro-uPA/mm^2) on a CM5 sensor chip. […] For the analysis, we incubated 2 nM uPAR with a 3-fold dilution series of the peptides (ranging from 0.076 nM to 1.5 μM) and the νobs was measured for 300 s at 20°C with a flow rate of 50 μL/min. The running buffer contained 10 mM HEPES, 150 mM NaCl, 3 mM EDTA and 0.05 % (v/v) surfactant P20, pH 7.4. The sensor chip was regenerated with two consecutive injections of 0.1 M acetic acid, 0.5 M NaCl in the end of each cycle. In parallel, we measured a standard curve (2-fold dilution of uPAR covering 0.06–2 nM). This standard curve included one repeated concentration point at the end to validate the biological integrity of the sensor chip.

[3] = target: T2, uPAR^1−283 (UniProt Q03405-1 23-305); assay: SPR; competition in solution: 2 nM uPAR incubated with 3-fold dilution series of the peptides (0.076 nM to 1.5 μM), free uPAR read by its association rate on pro-uPA^S356A immobilised at high density (>5,000 RU) on a CM5 chip; 10 mM HEPES, 150 mM NaCl, 3 mM EDTA, 0.05% P20, pH 7.4, 20°C; four-parameter dose-response fit, n = 3; details: both partners purified
T2 sequence (Q03405 23-305): as above

[4] = target: T2, uPAR^1−283; assay: SPR; uPAR^1−283 immobilised on a CM5 chip by amine coupling (905-1,333 RU); peptides injected in single cycle protocols, five serial 2-fold dilutions; 10 mM HEPES, 150 mM NaCl, 3 mM EDTA, 0.05% P-20, pH 7.4, 20°C; Biacore T200; simple bimolecular model, global fit; details: both partners purified

Molecule: CC(C)C[C@H](NC(=O)[C@H](Cc1ccc(O)cc1)NC(=O)[C@@H](CCCNC(=N)N)NC(=O)[C@@H](CO)NC(=O)[C@H](Cc1ccccc1)NC(=O)[C@H](CC1CCCCC1)NC(=O)[C@@H](N)CC(=O)O)C(=O)N[C@@H](Cc1c[nH]c2ccccc12)C(=O)N[C@@H](CO)C(=O)O [AE105]
kon [1]: 1.01e+06 ± 3000 M⁻¹ s⁻¹
koff ([1]; pH 7.4, 20°C): 0.00413 ± 1e-05 s⁻¹

Molecule: CC(C)C[C@H](NC(=O)[C@H](Cc1ccc(O)cc1)NC(=O)[C@@H](CCCNC(=N)N)NC(=O)[C@@H](CO)NC(=O)[C@H](CCC(=O)O)NC(=O)[C@H](CC1CCCCC1)NC(=O)[C@@H](N)CC(=O)O)C(=O)N[C@@H](CCC(=O)O)C(=O)N[C@@H](CO)C(=O)O [AE105mut] (H-D[Cha]E[dS][dR]YLES-OH)
IC50 [2]: > 1000 nM
Kd ([1]; immobilized uPAR, pH 7.4, 20°C, simple bimolecular interaction model, read-out: KD (equilibrium dissociation constant, koff/kon)): > 200 nM

B2: NOTA-AE105 (peptide)
chain: DXFSRYLWS
modifications: NOTA chelator conjugated at the N-terminal; Cha (cyclohexylalanine) at position 2; (D)Ser at position 4; (D)Arg at position 5
koff [4]: 0.0125 s⁻¹
kon [4]: 224000 M⁻¹ s⁻¹

B3: RESCA1-AE105 (peptide)
chain: DXFSRYLWS
modifications: RESCA1 chelator conjugated at the N-terminal; Cha (cyclohexylalanine) at position 2; (D)Ser at position 4; (D)Arg at position 5
IC50 [3]: 76.7 nM
Kd [4]: 48 nM

Molecule: D[Cha]E[dS][dR]YLES [AE105-mut]
IC50 [3]: > 1000 nM

Next, values leading:

kon [1]: 292000 ± 1000 M⁻¹ s⁻¹
koff ([1]; pH 7.4, 20°C): 0.014 ± 2e-05 s⁻¹
Molecule: CC(C)C[C@H](NC(=O)[C@H](Cc1ccc(O)cc1)NC(=O)[C@@H](CCCNC(=N)N)NC(=O)[C@@H](CO)NC(=O)[C@H](Cc1ccccc1)NC(=O)[C@H](CC1CCCCC1)NC(=O)[C@H](CC(=O)O)NC(=O)c1ccc(CN(CC(=O)O)[C@@H]2CCCC[C@H]2N(CC(=O)O)CC(=O)O)cc1)C(=O)N[C@@H](Cc1c[nH]c2ccccc12)C(=O)N[C@@H](CO)C(=O)O [RESCA1-AE105]

IC50 [3]: 8.86 nM
Kd [4]: 4.1 nM
B1: AE105 (peptide)
chain: DXFSRYLWS
modifications: Cha (cyclohexylalanine) at position 2; (D)Ser at position 4; (D)Arg at position 5
